Reference: patent US5446130A, “Parathyroid hormone antagonists” (Mitsubishi Kasei Corporation, priority 1990, dated 1995)
Like-named read-outs stand apart in the source and are kept apart here. Where no end group is shown, it is not given here. The star is where a group is joined. Myristoyl = CCCCCCCCCCCCCC(=O)*

Legend:
hPTH (1-34) [1] = molecular target: T1, hPTH (1-34) (human, UniProt P01270)
T1 peptide: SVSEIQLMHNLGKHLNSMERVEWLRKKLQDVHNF

hPTH (1-34) [2] = molecular target: T1, hPTH (1-34); conditions: scale: ratio of IC50 to that of [Tyr34]-hPTH(3-34)-NH2
[3] = tested on: output of cAMP produced by 5×10^-9 M hPTH (1-34) in cultured mouse osteoblast MC3T3-E1; experiment: Determination of PTH antagonism: inhibition of cAMP output induced by hPTH (1-34) in cultured mouse osteoblast MC3T3-E1; assay type: cell-based
Experimental: PTH antagonism of the PTHrP derivatives (I) of the present invention was determined on the basis of the output of cAMP, using cultured mouse osteoblast MC3T3-E1.
To a multiwell-culture plate of 12-well were inoculated 1×10^5 cells/well of the cultured cells, and the plate was incubated at 37° C. under 95% air-5% CO2 atmosphere for 3 days after addition of α-modified MEM containing 10% semi-fetal bovine serum as a medium. Then, the medium was exchanged with α-modified MEM containing 1% bovine serum albumin and the cultured cells were incubated for 6 hours. The medium was replaced by α-modified MEM containing various concentrations of the compound of the present invention, 5×10^-9 M hPTH (1-34), 1% bovine serum albumin and 1 mM isobutylmethylxanthin, and the mixture was incubated for 1 hour. The medium was separated from the cells, and the medium was used as a sample for assaying cAMP. The cells were shaken with 90% n-propyl alcohol to extract cAMP according to Yamaguchi et al., J. Biol. Chem., 262, 7711-7718 (1987) for preparing another sample.
Assay of cAMP was performed using a commercially available cAMP-radioimmunoassay kit. […] Compound numbers in the tables correspond to those in Table 2.

hPTH (1-34) [4] = molecular target: T1, hPTH (1-34); experiment: cell-based or functional assay
hPTH (1-34) [5] = molecular target: T1, hPTH (1-34); experiment: cell-based or functional assay
[6] = Table 3, 50% inhibition of cAMP output by 5×10^-9 M hPTH (1-34), ratio to control [Tyr34]-hPTH (3-34)-NH2 = 1
[7] = Table 4, 50% inhibition of cAMP output by 5×10^-9 M hPTH (1-34), ratio to control Compound No. 15 = 1

“[Leu^11,D-Trp^12]-hPTHrP(7-34)-NH2 (from UniProt P12272) (peptide)” showed an IC50 Ratio: 50% inhibition of cAMP output, MC3T3-E1 mouse osteoblasts (ratio of IC50 to that of Compound No. 15) (hPTH (1-34) [1]) of 3.91.

For “[Tyr^34]-hPTH (3-34)-NH2 (from UniProt P01270) (peptide)”, the IC50 Ratio: 50% inhibition of cAMP output, MC3T3-E1 mouse osteoblasts (hPTH (1-34) [2]) was 1.

For CC[C@H](C)[C@H](NC(=O)[C@H](CC(C)C)NC(=O)[C@H](Cc1c[nH]cn1)NC(=O)[C@H](Cc1c[nH]cn1)NC(=O)[C@H](CC(C)C)NC(=O)[C@H](Cc1ccccc1)NC(=O)[C@H](Cc1ccccc1)NC(=O)[C@H](CCCNC(=N)N)NC(=O)[C@H](CCCNC(=N)N)NC(=O)[C@H](CCCNC(=N)N)NC(=O)[C@H](CC(C)C)NC(=O)[C@H](CC(=O)O)NC(=O)[C@H](CCC(N)=O)NC(=O)[C@@H](NC(=O)[C@H](CO)NC(=O)[C@H](CCCCN)NC(=O)CNC(=O)[C@H](CC(C)C)NC(=O)[C@H](C)NC(=O)[C@H](Cc1c[nH]cn1)NC(=O)[C@H](CCSC)NC(=O)[C@H](CC(C)C)NC(=O)[C@H](CCC(N)=O)NC(=O)[C@@H](NC(=O)[C@H](CCC(=O)O)NC(=O)[C@@H](N)CO)[C@@H](C)CC)[C@@H](C)CC)C(=O)N[C@@H](C)C(=O)N[C@@H](CCC(=O)O)C(=O)N[C@H](C(=O)N[C@@H](Cc1c[nH]cn1)C(=O)N[C@H](C(=O)N[C@@H](C)C(N)=O)[C@@H](C)O)[C@@H](C)CC [Compound No. 1], the “IC50 Ratio” value [3, 6] was 0.003, the “concentration for 50% inhibition as fraction of that of [Tyr^34 ]-hPTH (3-34)-NH2” value ([3]; relative to [Tyr34]-hPTH (3-34)-NH2) was “below 1/300” and the “concentration for 50% inhibition as fraction of that of hPTHrP (3-34)-NH2” value ([3]; relative to hPTHrP (3-34)-NH2) was “about 1/29”.

For CC[C@H](C)[C@H](NC(=O)[C@H](CC(C)C)NC(=O)[C@H](Cc1c[nH]cn1)NC(=O)[C@H](Cc1c[nH]cn1)NC(=O)[C@H](CC(C)C)NC(=O)[C@H](Cc1ccccc1)NC(=O)[C@H](Cc1ccccc1)NC(=O)[C@H](CCCNC(=N)N)NC(=O)[C@H](CCCNC(=N)N)NC(=O)[C@H](CCCNC(=N)N)NC(=O)[C@H](CC(C)C)NC(=O)[C@H](CC(=O)O)NC(=O)[C@H](CCC(N)=O)NC(=O)[C@@H](NC(=O)[C@H](CO)NC(=O)[C@H](CCCCN)NC(=O)CNC(=O)[C@H](CC(C)C)NC(=O)[C@H](CCC(N)=O)NC(=O)[C@H](Cc1c[nH]cn1)NC(=O)[C@H](CCSC)NC(=O)[C@H](CC(C)C)NC(=O)[C@H](CCC(N)=O)NC(=O)[C@@H](NC(=O)[C@H](CCC(=O)O)NC(=O)[C@@H](N)CO)[C@@H](C)CC)[C@@H](C)CC)C(=O)N[C@@H](C)C(=O)N[C@@H](CCC(=O)O)C(=O)N[C@H](C(=O)N[C@@H](Cc1c[nH]cn1)C(=O)N[C@H](C(=O)N[C@@H](C)C(N)=O)[C@@H](C)O)[C@@H](C)CC [Compound No. 2], the “IC50 Ratio” value [3, 6] was 0.003.

For “IQLMHDKGKSIQDLRRRFFLRHLIAEIHTA-NH2 [Compound No. 19]”, the “IC50 Ratio” value [3, 7] was 0.934.

With CC[C@H](C)[C@H](N)C(=O)N[C@@H](CCC(N)=O)C(=O)N[C@@H](CC(C)C)C(=O)N[C@@H](CCSC)C(=O)N[C@@H](Cc1c[nH]cn1)C(=O)N[C@@H](C)C(=O)N[C@@H](CC(C)C)C(=O)NCC(=O)N[C@@H](CCCCN)C(=O)N[C@@H](CO)C(=O)N[C@H](C(=O)N[C@@H](CCC(N)=O)C(=O)N[C@@H](CC(=O)O)C(=O)N[C@@H](CC(C)C)C(=O)N[C@@H](CCCNC(=N)N)C(=O)N[C@@H](CCCNC(=N)N)C(=O)N[C@@H](CCCNC(=N)N)C(=O)N[C@@H](Cc1ccccc1)C(=O)N[C@@H](Cc1ccccc1)C(=O)N[C@@H](CC(C)C)C(=O)N[C@@H](Cc1c[nH]cn1)C(=O)N[C@@H](Cc1c[nH]cn1)C(=O)N[C@@H](CC(C)C)C(=O)N[C@H](C(=O)N[C@@H](C)C(=O)N[C@@H](CCC(=O)O)C(=O)N[C@H](C(=O)N[C@@H](Cc1c[nH]cn1)C(=O)N[C@H](C(=O)N[C@@H](C)C(N)=O)[C@@H](C)O)[C@@H](C)CC)[C@@H](C)CC)[C@@H](C)CC [Compound No. 18] the “IC50 Ratio” value [3, 7] was 1.97.

With “[Tyr^34 ]-hPTH (3-34)-NH2 [(Tyr34)--hPTH(3-34)--NH2, reference compound]” the “IC50 Ratio” value [3, 6] was 1.

CC[C@H](C)[C@H](NC(=O)[C@H](CC(C)C)NC(=O)[C@H](Cc1c[nH]cn1)NC(=O)[C@H](Cc1c[nH]cn1)NC(=O)[C@H](CC(C)C)NC(=O)[C@H](Cc1ccccc1)NC(=O)[C@H](Cc1ccccc1)NC(=O)[C@H](CCCNC(=N)N)NC(=O)[C@H](CCCNC(=N)N)NC(=O)[C@H](CCCNC(=N)N)NC(=O)[C@H](CC(C)C)NC(=O)[C@H](CC(=O)O)NC(=O)[C@H](CCC(N)=O)NC(=O)[C@@H](NC(=O)[C@H](CO)NC(=O)[C@H](CCCCN)NC(=O)CNC(=O)[C@H](CCCCN)NC(=O)[C@H](CC(=O)O)NC(=O)[C@H](Cc1c[nH]cn1)NC(=O)[C@H](CCSC)NC(=O)[C@H](CC(C)C)NC(=O)[C@H](CCC(N)=O)NC(=O)[C@@H](N)Cc1ccccc1)[C@@H](C)CC)C(=O)N[C@@H](C)C(=O)N[C@@H](CCC(=O)O)C(=O)N[C@H](C(=O)N[C@@H](Cc1c[nH]cn1)C(=O)N[C@H](C(=O)N[C@@H](C)C(N)=O)[C@@H](C)O)[C@@H](C)CC [Compound No. 8] was tested, and the “IC50 Ratio” value [3, 6] was 0.026.

With IQLMHALGKSIQDLRRRFFLHHLIAEIHTA-NH2 [Compound No. 18] the “IC50 Ratio: 50% inhibition of cAMP output, MC3T3-E1 mouse osteoblasts” value (hPTH (1-34) [4]) was 1.97 ratio of IC50 to that of Compound No. 15.

In the case of XLMHDKGKSIQDLRRRFFLHHLIAEIHTA (N-terminal myristoyl (Myr-Gln); C-terminal amide (Ala-NH2)) [Compound No. 10], the “IC50 Ratio: 50% inhibition of cAMP output, MC3T3-E1 mouse osteoblasts” value (hPTH (1-34) [4]) is reported as 2.24 ratio of IC50 to that of Compound No. 15.

In the case of SEIQLMHQLGKSIQDLRRRFFLHHLIAEIHTA-NH2 [Compound No. 2], the “IC50 Ratio: 50% inhibition of cAMP output, MC3T3-E1 mouse osteoblasts” value (hPTH (1-34) [5]) is reported as 0.003 ratio of IC50 to that of [Tyr34]-hPTH(3-34)-NH2.

In the case of IQLMHDKGKSIQDLRRRFFLHHLIAEIHTA-NH2 [[Ile^5, Met^8]-hPTHrP (5-34)-NH2], the “IC50 Ratio: 50% inhibition of cAMP output, MC3T3-E1 mouse osteoblasts” value (hPTH (1-34) [4]) is reported as 1 ratio of IC50 to that of Compound No. 15 and the “IC50 Ratio: 50% inhibition of cAMP output, MC3T3-E1 mouse osteoblasts” value (hPTH (1-34) [5]) is reported as 0.017 ratio of IC50 to that of [Tyr34]-hPTH(3-34)-NH2.

For FQLMHDKGKSIQDLRRRFFLHHLIAEIHTA-NH2 [Compound No. 8], the “IC50 Ratio: 50% inhibition of cAMP output, MC3T3-E1 mouse osteoblasts” value (hPTH (1-34) [5]) was 0.026 ratio of IC50 to that of [Tyr34]-hPTH(3-34)-NH2.

IQLMHDKGKSIQDLRRRFFLHKLIAEIHTA-NH2 [Compound No. 20] was tested, and the “IC50 Ratio: 50% inhibition of cAMP output, MC3T3-E1 mouse osteoblasts” value (hPTH (1-34) [4]) was 1.01 ratio of IC50 to that of Compound No. 15.

With SEIQLMHALGKSIQDLRRRFFLHHLIAEIHTA-NH2 [Compound No. 1] the “IC50 Ratio: 50% inhibition of cAMP output, MC3T3-E1 mouse osteoblasts” value (hPTH (1-34) [5]) was 0.003 ratio of IC50 to that of [Tyr34]-hPTH(3-34)-NH2.

B1: Compound No. 22 (peptide)
peptide: Myristoyl-IQLMHDKGKSIQDLRRRFFLHHLIAEIHTA-NH2
SMILES: CCCCCCCCCCCCCC(=O)N[C@H](C(=O)N[C@@H](CCC(N)=O)C(=O)N[C@@H](CC(C)C)C(=O)N[C@@H](CCSC)C(=O)N[C@@H](Cc1c[nH]cn1)C(=O)N[C@@H](CC(=O)O)C(=O)N[C@@H](CCCCN)C(=O)NCC(=O)N[C@@H](CCCCN)C(=O)N[C@@H](CO)C(=O)N[C@H](C(=O)N[C@@H](CCC(N)=O)C(=O)N[C@@H](CC(=O)O)C(=O)N[C@@H](CC(C)C)C(=O)N[C@@H](CCCNC(=N)N)C(=O)N[C@@H](CCCNC(=N)N)C(=O)N[C@@H](CCCNC(=N)N)C(=O)N[C@@H](Cc1ccccc1)C(=O)N[C@@H](Cc1ccccc1)C(=O)N[C@@H](CC(C)C)C(=O)N[C@@H](Cc1c[nH]cn1)C(=O)N[C@@H](Cc1c[nH]cn1)C(=O)N[C@@H](CC(C)C)C(=O)N[C@H](C(=O)N[C@@H](C)C(=O)N[C@@H](CCC(=O)O)C(=O)N[C@H](C(=O)N[C@@H](Cc1c[nH]cn1)C(=O)N[C@H](C(=O)N[C@@H](C)C(N)=O)[C@@H](C)O)[C@@H](C)CC)[C@@H](C)CC)[C@@H](C)CC)[C@@H](C)CC
For B1, the “IC50 Ratio: 50% inhibition of cAMP output, MC3T3-E1 mouse osteoblasts” value (hPTH (1-34) [4]) was 0.765 ratio of IC50 to that of Compound No. 15.

In the case of IQLMHDKGKSIQDLRRRFFLRHLIAEIHTA-NH2 [Compound No. 19], the “IC50 Ratio: 50% inhibition of cAMP output, MC3T3-E1 mouse osteoblasts” value (hPTH (1-34) [4]) is reported as 0.934 ratio of IC50 to that of Compound No. 15.

With Ac-IQLMHDKGKSIQDLRRRFFLHHLIAEIHTA-NH2 [Compound No. 21] the “IC50 Ratio: 50% inhibition of cAMP output, MC3T3-E1 mouse osteoblasts” value (hPTH (1-34) [4]) was 0.934 ratio of IC50 to that of Compound No. 15.

With LQLMHDKGKSIQDLRRRFFLHHLIAEIHTA-NH2 [Compound No. 9] the “IC50 Ratio: 50% inhibition of cAMP output, MC3T3-E1 mouse osteoblasts” value (hPTH (1-34) [4]) was 1.02 ratio of IC50 to that of Compound No. 15.

With IQLMHAKGKSIQDLRRRFFLHHLIAEIHTA-NH2 [Compound No. 17] the “IC50 Ratio: 50% inhibition of cAMP output, MC3T3-E1 mouse osteoblasts” value (hPTH (1-34) [4]) was 1.17 ratio of IC50 to that of Compound No. 15.

IQXMHDKGKSIQDLRRRFFLHHLIAEIHTA (Nle (norleucine) as third residue (EEE); C-terminal amide (Ala-NH2)) [Compound No. 14] was tested, and the “IC50 Ratio: 50% inhibition of cAMP output, MC3T3-E1 mouse osteoblasts” value (hPTH (1-34) [4]) was 0.922 ratio of IC50 to that of Compound No. 15.
